From paper PMC13365404

Target: EBOV GP ectodomain for structural work (EBOV Mayinga, residues 33-651, mucin-like domain deleted, double Strep-tag) (Orthoebolavirus zairense (Ebola virus, EBOV), Mayinga) (UniProt Q05320)
Experiment: cryo-EM structure

Substance: EBOV GP ectodomain for structural work (EBOV Mayinga, residues 33-651, mucin-like domain deleted, double Strep-tag) (from UniProt Q05320 33-651) (domain or fragment)
- stoichiometry N: 3
